Results from US6087115A, “Methods of identifying negative antagonists for G protein coupled receptors” (Cornell Research Foundation, Inc., priority 1997, dated 2000).

T1: KSHV GPCR (Human herpesvirus 8 type P, UniProt Q98146)
T1 construct: expressed in transfected cells; host or cells: COS-1
T1 sequence (Q98146 1-342): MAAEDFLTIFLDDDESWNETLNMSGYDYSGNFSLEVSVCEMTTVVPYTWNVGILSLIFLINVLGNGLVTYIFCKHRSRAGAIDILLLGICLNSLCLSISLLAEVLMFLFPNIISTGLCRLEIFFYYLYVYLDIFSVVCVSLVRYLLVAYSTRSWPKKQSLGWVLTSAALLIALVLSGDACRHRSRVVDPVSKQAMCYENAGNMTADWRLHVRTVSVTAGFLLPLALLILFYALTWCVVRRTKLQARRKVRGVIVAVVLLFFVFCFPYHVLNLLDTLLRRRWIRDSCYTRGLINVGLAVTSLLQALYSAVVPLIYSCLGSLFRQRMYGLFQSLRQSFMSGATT

B1: NAP-2: C-X-C chemokine (protein, UniProt P02775 59-128, looked up)
Neutrophil-activating peptide …: AELRCMCIKTTSGIHPKNIQSLEVIGKGTHCNQVEVIATLKDGRKICLDPDAPRIKKIVQKKLAGDESAD
modifications: Neutrophil-activating peptide 2
notes: C-X-C chemokine
B2: I-309: chemokine of the C-C family (protein, UniProt P22362 24-96, looked up)
C-C motif chemokine 1: KSMQVPFSRCCFSFAEQEIPLRAILCYRNTSSICSNEGLIFKLKRGKEACALDTVGWVQRHRKMLRHCPSKRK
B3: MIP-1b: chemokine of the C-C family (protein, UniProt P13236 24-92, looked up)
C-C motif chemokine 4: APMGSDPPTACCFSYTARKLPRNFVVDYYETSSLCSQPAVVFQTKRSKQVCADPSESWVQEYVYDLELN

Key:
[1] = system: human IL-8 receptors (type A or B); test: Inositol phosphate accumulation in COS-1 cells transfected with human IL-8 receptor plasmids with or without Ga16/Ga15; assay type: cell-based; details: COS cells expressing IL-8 receptors without cotransfected Ga16 or Ga15, absence or presence of IL-8
[2] = molecular target: human IL-8 receptor types A or B; details: values previously reported (Holmes et al. 1991; Murphy and Tiffany 1991); cited from earlier work
KSHV GPCR = molecular target: T1, KSHV GPCR; test: Competition binding of 125I-IL-8 by unlabelled chemokines to COS-1 cells transfected with pcKSHV GPCR; details: for binding to KSHV GPCR (in words): competition analysis with 125I-IL-8, FIGS. 2 and 3; for Ki: competition of human recombinant 125I-IL-8, COS-1 cells transfected with pcKSHV GPCR, 4° C., 2 hrs, read-out: Kd or Ki
Procedure: Data represent the mean of triplicate determinations in a representative of two experiments;
Competition binding. The coding sequence of KSHV GPCR was cleaved from its original subcloning plasmid (Cesarman et al. 1996) by digestion with NcoI and inserted into the EcoRV site of the eukaryotic expression vector pcDNA3.1(+) (Invitrogen), producing the pcKSHV GPCR used for expression in mammalian cells. COS-1 cells (American Type Culture Collection) were grown in 100 mm petri dishes in Dulbecco's modified Eagle's medium (DMEM; GIBCO-BRL) with 5% Nu-Serum (Collaborative Research) in a humidified incubator in an atmosphere of 5% CO2 at 37° C. […] Approximately 100,000 cells per well (in 12-well plates) were washed with Hank's balanced salt solution (HBSS) containing 25 mM HEPES, pH 7.4 (GIBCO-BRL). […] The binding buffer contained bovine serum albumin (BSA; 1 mg/ml), bacitracin (1 mg/ml), and phenyl methyl sulphonyl fluoride (PMSF; 1 mM). Assays were terminated by aspirating the binding buffer, washing three times with chilled HBSS and solubilizing the cells with 0.4 N NaOH. An aliquot of this solution was counted in a gamma counter and the data expressed as percent of maximum bound. Binding and dose-response curves were analyzed using Prism software (GraphPad, Inc.).

Molecule | accumulation of IPs [1] | Kd [2] | binding to KSHV GPCR (in words) (KSHV GPCR) | Ki (KSHV GPCR)
IL-8: member of the family of C-X-C chemokines; used as radioligand and unlabelled competitor | little measurable accumulation | 0.8 to 1 nM |  | 
MCP-1: chemokine of the C-C family |  |  | do not | 
MGSA: C-X-C chemokine |  |  | also bind to KSHV GPCR | 270 nM
PF-4: C-X-C chemokine |  |  | also bind to KSHV GPCR | 150 nM
RANTES: chemokine of the C-C family |  |  | bind to KSHV GPCR | 520 nM
B1 |  |  | also bind to KSHV GPCR | 23 nM
B2 |  |  | bind to KSHV GPCR | 110 nM
B3 |  |  | do not | 
